One substance from PMC7811047 can be followed below.

The target of the assay is N-terminal protein A (PA)-Renilla luciferase (RL)-ARFRP1 fusion protein (UniProt Q13795). Briefly: co-IP.
UniProt Q13795, sequence (Q13795 whole entry, the tested form may be a part): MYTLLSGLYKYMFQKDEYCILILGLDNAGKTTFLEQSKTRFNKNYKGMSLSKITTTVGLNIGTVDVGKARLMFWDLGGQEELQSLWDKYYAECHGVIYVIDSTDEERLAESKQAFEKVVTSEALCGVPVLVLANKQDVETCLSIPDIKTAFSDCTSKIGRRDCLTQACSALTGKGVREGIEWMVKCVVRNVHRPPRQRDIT

The substance “V5-firefly luciferase (FL)-tagged VPS35 (from UniProt Q96QK1 1-796) (natural protein)” had a fold luciferase activity over control of 2.8 fold.
